Source: PMC5430508

Biological target: 8G-AIDA receptor: eight tandemly repeated protein G C2 domains linked with AIDA, on the surface of Escherichia coli BL21 cells (BL21/8G) (not stated (streptococcal))
Assay: ELISA; bacteria coated on poly-L-lysine-treated 96-well plates (10^7 cfu/well added; about 6.7 × 10^6 cfu/well coated), blocked with 5% skim milk; HRP-conjugated goat anti-mouse IgG Fc (1 μg/mL), room temperature, 1 h; ABTS, absorbance at 405 nm

fold of antibody trapped against BL21/1G cells: 18.9 fold
Substance: HRP-conjugated goat anti-mouse IgG Fc (antibody)
